Measured values: patent US20250066456A1 (NOVAVAX, published 2025)
Like-named read-outs stand apart in the source and are kept apart here.

Key:
[1] = biological target: T1, BV2443 (recombinant CoV S glycoprotein, Gamma) (SARS-CoV-2, UniProt P0DTC2 14-1273)
[2] = biological target: T2, BV2541 (recombinant CoV S glycoprotein, BA.4) (SARS-CoV-2, UniProt P0DTC2 14-1273); experiment: ELISA on coated rS
[3] = biological target: T3, BV2562 (recombinant CoV S glycoprotein, BA.4.6) (SARS-CoV-2, UniProt P0DTC2 14-1273); experiment: ELISA on coated rS
[4] = biological target: T4, BV2373 (recombinant CoV S glycoprotein, Prototype) (SARS-CoV-2, UniProt P0DTC2 14-1273); experiment: hACE2 receptor inhibition ELISA on coated rS; competitor hACE2-His
[5] = biological target: T5, BV2425 (recombinant CoV S glycoprotein, Alpha) (SARS-CoV-2, UniProt P0DTC2 14-1273); experiment: as above
[6] = biological target: T6, BV2438 (recombinant CoV S glycoprotein, Beta) (SARS-CoV-2, UniProt P0DTC2 14-1273); experiment: as above
[7] = biological target: T1, BV2443 (recombinant CoV S glycoprotein, …); experiment: as above
[8] = biological target: T7, BV2465 (recombinant CoV S glycoprotein, Delta) (SARS-CoV-2, UniProt P0DTC2 14-1273); experiment: as above
[9] = biological target: T8, BV2509 (recombinant CoV S glycoprotein, BA.1) (SARS-CoV-2, UniProt P0DTC2 14-1273); experiment: as above
[10] = biological target: T5, BV2425 (recombinant CoV S glycoprotein, …); experiment: ELISA, plate coated with rS, serial dilution of the mAb, anti-mouse HRP, A450
[11] = biological target: T1, BV2443 (recombinant CoV S glycoprotein, …); experiment: as above
[12] = biological target: T7, BV2465 (recombinant CoV S glycoprotein, …); experiment: as above
[13] = biological target: T8, BV2509 (recombinant CoV S glycoprotein, …); experiment: as above
[14] = biological target: T9, Delta Plus CoV S glycoprotein (recombinant) (Severe acute respiratory syndrome …, UniProt P0DTC2 14-1273)
[15] = biological target: T8, BV2509 (recombinant CoV S glycoprotein, …); experiment: ELISA on coated rS
[16] = biological target: BV2561 (recombinant CoV S glycoprotein, BA.2.75) (SARS-CoV-2, UniProt P0DTC2 14-1273); experiment: ELISA on coated rS
[17] = biological target: BV2589 (recombinant CoV S glycoprotein, BQ.1.1) (SARS-CoV-2, UniProt P0DTC2 14-1273); experiment: BLI, antibody on anti-mouse Fc biosensor, rS analyte
[18] = biological target: T2, BV2541 (recombinant CoV S glycoprotein, …)
[19] = biological target: T3, BV2562 (recombinant CoV S glycoprotein, …)
[20] = biological target: T4, BV2373 (recombinant CoV S glycoprotein, …); experiment: ELISA on coated rS
[21] = biological target: T5, BV2425 (recombinant CoV S glycoprotein, …); experiment: ELISA on coated rS
[22] = biological target: T6, BV2438 (recombinant CoV S glycoprotein, …); experiment: ELISA on coated rS
[23] = biological target: T1, BV2443 (recombinant CoV S glycoprotein, …); experiment: ELISA on coated rS
[24] = biological target: T7, BV2465 (recombinant CoV S glycoprotein, …); experiment: ELISA on coated rS
[25] = biological target: T8, BV2509 (recombinant CoV S glycoprotein, …); experiment: ELISA on coated rS; remark: listed apart in the source
[26] = biological target: T9, Delta Plus CoV S glycoprotein …; experiment: ELISA on coated rS
[27] = biological target: T9, Delta Plus CoV S glycoprotein …; experiment: hACE2 receptor inhibition ELISA on coated rS; competitor hACE2-His

B1: 425.6 (antibody, V domains shown)
VH: VQLKQSGPSLVQPSQSLSITCTVSGFSLTSYGIHWVRQSPGKGLEWLGVIWRGGSTDYNAAFMSRLTITKDNSKSQVFFKMNSLQADDTAIYYCATHTEGDDVDYWGQGTSVTVSS
VL: QIVLTQSPAIMSVSPGEKVTMTCSASSTMSFMYWYQQKPGSSPRLLIYDTSNLASGVPVRFSGSGSGTSYSLTISRVEAEDAATYYCQQWNTYPLTFGAGTKLELKR
With B1 as the binder, how does the Kd [1] read?
Its Kd is 3.52 pM.

And the EC50 [2]?
The EC50 was 0.016 µg/mL.

And the EC50 [3]?
The EC50 was 0.021 µg/mL.

And the IC50 [4]?
Its IC50 is 0.064 µg/mL.

What about the IC50 [5] of the same binder?
Its IC50 is 0.1 µg/mL.

And the IC50 [6]?
Its IC50 is 0.048 µg/mL.

And the IC50 [7]?
The IC50 was 0.048 µg/mL.

What about the IC50 [8] of the same binder?
Its IC50 is 0.069 µg/mL.

And the IC50 [9]?
Its IC50 is over 3 µg/mL.

What about the EC50 [10] of the same binder?
Its EC50 is 0.011 µg/mL.

What about the EC50 [11] of the same binder?
Its EC50 is 0.01 µg/mL.

What about the EC50 [12] of the same binder?
The EC50 was 0.012 µg/mL.

What about the EC50 [13] of the same binder?
Its EC50 is over 1 µg/mL.

B2: 322.3 (antibody, V domains shown)
VH: RVQLQQSGPELVKPGASVTISCKASGYIFTSDYIHWVKQRPGQGPEWIGWIYPGNINTKYNEKFKGKATLTADKSSSTAYMQLSSLTSEDSAVYFCARDDGNLYYYAMDYWGQGTSVTVSS
VL: NIVLTQSPASLAVSLGQRATISCRASESVDSYGSSFMHWYQQKPGQPPKLLIYLASNLESGVPARFSGSGSRTDFTLTIDPVEADDAATYYCQQNNEDPRTFGGGTKLEIK
What does the source list for B2?
EC50 [14]: 0.054 µg/mL; EC50 [15]: 0.197 µg/mL; EC50 [2]: 0.082 µg/mL; EC50 [16]: 0.144 µg/mL; EC50 [3]: 0.117 µg/mL; Kd [17]: 1.63 pM

B3: 35.13 (antibody, V domains shown)
VH: QVQLQQSGAELGKPGASVKLSCRASGYTFTRYYIYWVKQRPGQGLEWIGEINPSNGDTHFNEKFKTKATLTVDKSSSSAHIHLTSLTSEDSAVYYCSIHAYSFDFWGQGTTLTVSS
VL: EIQMTQSPSSMSASLGDRITITCQATQDIVKNLNWYQQKPGKPPSFLIYHATELAKGVPSRFSGSGSGSDYSLTISNLESEDFADYYCLQFYDFPFTFGAGTKLELKR
B3 was tested. Which IC50 [18] did it give?
The IC50 was over 3 µg/mL.

And the IC50 [19]?
The IC50 was over 3 µg/mL.

What about the EC50 [20] of the same binder?
The EC50 was 0.007 µg/mL.

And the EC50 [21]?
Its EC50 is 0.011 µg/mL.

What about the EC50 [22] of the same binder?
The EC50 was 0.119 µg/mL.

And the EC50 [23]?
The EC50 was 0.012 µg/mL.

And the EC50 [24]?
The EC50 was 0.01 µg/mL.

What about the EC50 [25] of the same binder?
Its EC50 is 0.05 µg/mL.

What about the EC50 [26] of the same binder?
Its EC50 is 0.011 µg/mL.

And the EC50 [15]?
Its EC50 is 0.038 µg/mL.

And the EC50 [16]?
The EC50 was 0.048 µg/mL.

And the Kd [17]?
The Kd was under 1 pM.

And the koff [17]?
The koff was under 1e-07 s⁻¹.

And the kon [17]?
The kon was 26900 M⁻¹ s⁻¹.

What about the IC50 [4] of the same binder?
Its IC50 is 0.074 µg/mL.

What about the IC50 [5] of the same binder?
The IC50 was 0.142 µg/mL.

What about the IC50 [6] of the same binder?
The IC50 was 0.922 µg/mL.

What about the IC50 [7] of the same binder?
Its IC50 is 0.07 µg/mL.

What about the IC50 [8] of the same binder?
Its IC50 is 0.098 µg/mL.

What about the IC50 [9] of the same binder?
The IC50 was 0.102 µg/mL.

And the IC50 [27]?
Its IC50 is 0.065 µg/mL.
